The text below walks through data of patent US20190144559A1 (Daiichi Sankyo, published 2019).

Experiment [1] addresses T1, Recombinant Human TROP-2 Fc chimera (human, UniProt P09758 27-274, limits assumed).
T1 construct: Used as the analyte in Biacore; also called antigen (Recombinant Human TROP-2 Fc chimera); not shown: Fc part and any linker of the chimera are not described
T1 sequence (looked up): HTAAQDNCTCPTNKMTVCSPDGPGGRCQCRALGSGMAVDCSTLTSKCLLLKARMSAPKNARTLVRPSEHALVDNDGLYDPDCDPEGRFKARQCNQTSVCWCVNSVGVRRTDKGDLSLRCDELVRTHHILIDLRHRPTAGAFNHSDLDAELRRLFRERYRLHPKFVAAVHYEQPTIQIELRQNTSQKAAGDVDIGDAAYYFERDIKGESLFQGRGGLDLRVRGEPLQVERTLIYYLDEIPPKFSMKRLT
The experiment can be described thus: SPR Biacore 3000, purified antibody captured on anti-human IgG (Fab), antigen as analyte, bivalent model.

Experiment [2] deals with T1, Recombinant Human TROP-2 Fc chimera. The experiment can be described thus: SPR Biacore 3000, antibody from culture supernatant captured on anti-human IgG (Fab), antigen as analyte, bivalent model.

B1: hTINA1-H2L1 (antibody, human IgG1, kappa)
heavy: not shown
light: DIQMTQSPSSLSASVGDRVTITCKASQDVSTAVAWYQQKPGKAPKLLIYSASYRYTGVPSRFSGSGSGTDFTLTISSLQPEDFAVYYCQQHYITPLTFGQGTKLEIKRTVAAPSVFIFPPSDEQLKSGTASVVCLLNNFYPREAKVQWKVDNALQSGNSQESVTEQDSKDSTYSLSSTLTLSKADYEKHKVYACEVTHQGLSSPVTKSFNRGEC
notes: Human IgG1/kappa; also called hTINA1 antibody
With B1, the Kd in experiment [1] was 30 nM; in experiment [2], 69 nM.

B2: hTINA1-H2L2 (antibody, human IgG1, kappa)
heavy: not shown
light: DIVMTQSPSSLSASVGDRVTITCKASQDVSTAVAWYQQKPGKAPKLLIYSASYRYTGVPSRFSGSGSGTDFTLTISSLQPEDFAVYYCQQHYITPLTFGQGTKLEIKRTVAAPSVFIFPPSDEQLKSGTASVVCLLNNFYPREAKVQWKVDNALQSGNSQESVTEQDSKDSTYSLSSTLTLSKADYEKHKVYACEVTHQGLSSPVTKSFNRGEC
notes: as for B1
With B2, the figures for the Kd in experiment [1] and in experiment [2] were 27 nM and 71 nM, respectively.

B3: hTINA1-H3L3 (antibody, human IgG1, kappa, V domains shown)
VH: QIQLVQSGAEVKKPGESVKVSCKASGYTFTTAGMQWVQQMPGKGLEWMGWINTHSGVPKYAEDFKGRVTFSLDTSTSTAYLQLSSLKSEDTAVYYCARSGFGSSYWYFDVWGQGTLVTVSS
VL: DIVMTQSPSSLSASVGDRVTITCKASQDVSTAVAWYQQKPGKQPKLLIYSASYRYTGVPSRFSGSGSGTDFTLTISSLQPEDFAVYYCQQHYITPLTFGQGTKLEIKR
notes: as for B1
As for B3, the Kd in experiment [1] worked out at 15 nM; in experiment [2], 58 nM.

B4: hTINA1-H1L1 (antibody, human IgG1, kappa, V domains shown)
VH: QVQLVQSGAEVKKPGASVKVSCKASGYTFTTAGMQWVRQAPGQGLEWMGWINTHSGVPKYAEDFKGRVTISADTSTSTAYLQLSSLKSEDTAVYYCARSGFGSSYWYFDVWGQGTLVTVSS
VL: DIQMTQSPSSLSASVGDRVTITCKASQDVSTAVAWYQQKPGKAPKLLIYSASYRYTGVPSRFSGSGSGTDFTLTISSLQPEDFAVYYCQQHYITPLTFGQGTKLEIKR
notes: Human IgG1/kappa; also called hTINA1 antibody; humanized TINA1
Regarding B4, the Kd was found to be 27 nM in experiment [1] and 63 nM in experiment [2].

B5: hRS7 antibody (antibody, V domains shown)
VH: QVQLQQSGSELKKPGASVKVSCKASGYTFTNYGMNWVKQAPGQGLKWMGWINTYTGEPTYTDDFKGRFAFSLDTSVSTAYLQISSLKADDTAVYFCARGGFGSSYWYFDVWGQGSLVTVSS
VL: DIQLTQSPSSLSASVGDRVSITCKASQDVSIAVAWYQQKPGKAPKLLIYSASYRYTGVPDRFSGSGSGTDFTLTISSLQPEDFAVYYCQQHYITPLTFGAGTKVEIKR
Regarding B5, in experiment [1], the Kd came out at 0.3 nM.

B6: cTINA1 antibody (antibody, human IgG1, V domains shown)
VH: QIQLVQSGPELKKPGETVRISCKASGYTFTTAGMQWVQKMPGKGLKWIGWINTHSGVPKYAEDFKGRFAFSLETSASTAYLQISNLKNEDTTTYFCARSGFGSSYWYFDVWGAGTAVTVSS
VL: DIVMTQSHKFMSTSVGDRVSITCKASQDVSTAVAWYQQKPGQSPKLLIYSASYRYTGVPDRFTGSGSGTAFTFTISSVQAEDLAVYYCQQHYITPLTFGAGTKLELKR
notes: Mouse TINA1 variable regions on human IgG1/kappa constant regions; also called human chimeric TINA1 antibody; chimeric TINA1
As to B6, the Kd in experiment [2] was 56 nM.
